Values quoted from earlier work, collected in PMC3249237.

Target: LRP6 E1E2 (Homo sapiens) (UniProt O75581)
Sequence (O75581 20-630): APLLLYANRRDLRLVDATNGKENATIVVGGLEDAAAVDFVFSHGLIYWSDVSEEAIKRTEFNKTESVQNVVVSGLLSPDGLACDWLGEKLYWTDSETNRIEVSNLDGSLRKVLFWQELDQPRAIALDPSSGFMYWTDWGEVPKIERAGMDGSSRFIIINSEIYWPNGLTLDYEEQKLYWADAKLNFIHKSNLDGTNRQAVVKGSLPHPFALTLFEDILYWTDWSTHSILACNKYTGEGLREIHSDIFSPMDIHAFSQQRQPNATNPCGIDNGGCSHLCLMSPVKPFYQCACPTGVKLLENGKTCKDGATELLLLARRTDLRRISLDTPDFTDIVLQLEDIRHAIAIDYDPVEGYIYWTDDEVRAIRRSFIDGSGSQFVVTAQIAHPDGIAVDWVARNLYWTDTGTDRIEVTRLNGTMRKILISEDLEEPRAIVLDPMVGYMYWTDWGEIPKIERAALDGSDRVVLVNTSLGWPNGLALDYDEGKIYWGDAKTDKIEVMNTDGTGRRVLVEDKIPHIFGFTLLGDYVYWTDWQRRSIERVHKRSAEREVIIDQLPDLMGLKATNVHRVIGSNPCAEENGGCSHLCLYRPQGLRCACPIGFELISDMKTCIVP

Chain of DKK1 (O94907 32-266): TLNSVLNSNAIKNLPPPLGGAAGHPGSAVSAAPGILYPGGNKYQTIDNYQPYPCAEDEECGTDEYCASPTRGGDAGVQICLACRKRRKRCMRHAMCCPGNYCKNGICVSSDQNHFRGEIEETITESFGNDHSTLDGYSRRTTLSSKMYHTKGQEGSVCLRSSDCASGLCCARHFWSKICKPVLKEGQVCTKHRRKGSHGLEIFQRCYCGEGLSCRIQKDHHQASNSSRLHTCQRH

Kd: 0.064 µM
Substance: DKK1 (from UniProt O94907)
